One assay concerns human HCT116 tumor cells. Kind of assay: HCT116 xenograft tumor growth, REGN421 with irinotecan (Example 6). The assay is classed as in vivo, mouse. As to conditions: REGN421 2 mg/kg sc (6 mg/kg total dose). How it is done:
Each mouse was implanted subcutaneously (sc) with 5×10^6 human HCT116 tumor cells. After the tumors were established in the mice (tumor size of ˜150 mm^3, 15 days after implantation), tumors were measured and randomized. The mice were then treated with hFc, REGN421, irinotecan or combination of REGN421 and irinotecan. A total of 30 mice were divided into 6 groups (n=5 per cohort). The first group was treated sc with hFc at 2 mg/kg; the second group was treated sc with REGN421 at 2 mg/kg; the third and fourth groups were treated ip with irinotecan at 7.5 and 25 mg/kg, respectively; the fifth group was treated sc with REGN421 at 2 mg/kg and ip with irinotecan at 7.5 mg/kg; and the sixth group was treated sc with REGN421 at 2 mg/kg and ip with irinotecan at 25 mg/kg. REGN421 was administered every 3-4 days starting on day 15 and mice received three doses total. Irinotecan was administered every 3-4 days starting on day 15 and mice received three doses total.
To assess the effects of REGN421 and irinotecan as single agents or in combination treatments, the changes in tumor size (volume) are measured, starting three days before the initial REGN421 treatment, and then on the day of each agent treatment (days 15, 19, 22) and thereafter every 3-4 days until tumors reach ˜600 mm^3 in size. In vivo tumor size is calculated using the formula (length×width^2)/2.

Assay [1] concerns human VM-Cub1 tumor cells (bladder carcinoma cells). As to the kind of experiment: VM-Cub1 bladder carcinoma xenograft tumor growth, REGN421 with cisplatin (Example 1). The assay is classed as in vivo, mouse. Conditions: for TGI: 3 doses, at day 32; for Euthanized: control cohort euthanized day 32; for TGD: time to 600 mm^3 vs control. How it is done:
The effect of anti-Dll4 antibody (REGN421) in combination with cisplatin (platinol, cis-diamminedichloroplatinum) on tumor growth was evaluated on tumors implanted in Severe Combined Immunodeficiency (SCID) mice expressing a humanized Dll4 protein (humanized Dll4 SCID mice). The humanized Dll4 SCID mouse was made by replacing the entire extracellular domain of the mouse Dll4 gene with the corresponding extracellular region of the human Dll4 gene (7 kb) in embryonic stem (ES) cells. Homozygous hDll4 mice were generated and bred into SCID background.
Each mouse was implanted subcutaneously (sc) with 1×10^6 human VM-Cub1 tumor cells (bladder carcinoma cells) plus MATRIGEL™ (BD Biosciences, #354234). After the tumors were established in the mice (tumor size of 150-200 mm^3, approximately 14 days after implantation), tumors were measured, randomized and treated with hFc, REGN421, cisplatin, or combination of REGN421 and cisplatin. A total of 45 mice were divided into nine groups (n=5 per cohort). The first group was treated subcutaneously (sc) with hFc at 2 mg/kg; the second and third groups were treated sc with REGN421 at 0.5 and 2 mg/kg, respectively; the fourth and fifth groups were treated intraperitoneally (ip) with cisplatin at 0.5 and 2 mg/kg, respectively; the sixth group was treated sc with REGN421 at 0.5 mg/kg and ip with cisplatin at 0.5 mg/kg; the seventh group was treated sc with REGN421 at 0.5 mg/kg and ip with cisplatin at 2 mg/kg; the eighth group was treated sc with REGN421 at 2 mg/kg and ip with cisplatin at 0.5 mg/kg; and the ninth group was treated sc with REGN421 at 2 mg/kg and ip with cisplatin at 2 mg/kg. REGN421 was administered every 3-4 days starting on day 14 and mice received three doses total. Cisplatin was administered every 24 hours starting on day 14; mice received four doses total.
To assess the effects of REGN421 and cisplatin as single agents or in combination treatments, the changes in tumor size were recorded. Tumor growth was measured three days before the initial REGN421 treatment, on the day of each REGN421 treatment (days 14, 17 and 21) and thereafter every 3-4 days until tumors reached ˜600 mm^3 in size. In vivo tumor size was calculated using the formula (length×width^2)/2 (FIG. 1 and Table 1).
Tumor Growth Inhibition, TGI, was determined by calculating the difference in tumor size for treated (T) versus vehicle control (C) tumor at the day the control cohort was euthanized (i.e., at day 32); TGI=[1−(Tfinal−Tinitial)/(Cfinal−Cinitial)]×100.
Tumor growth delay, TGD, was assessed as the difference in days between treated (T) versus control (C) tumors when each cohort reached a specified tumor size. The predetermined tumor size for this experiment was 600 mm^3.

B1: REGN421: anti-hDll4 antibody comprising HCVR/LCVR combination of SEQ ID NO:116/118 (antibody, V domains shown)
VH: QVQLVESGGGVVQPGRSLRLSCAASGFTFSSYGMHWVRQAPGKGLEWVSFLWYDGTNKNYVESVKGRFTISRDNSKNMLYLEMNSLRAEDTAVYYCARDHDFRSGYEGWFDPWGQGTLVTVSS
VL: EIVLTQSPATLSLSPGERATLSCRASQSVSSYLAWYQQKPGQAPRLLIYDASNRATGIPARFSGSGSGTDFTLTISSLEPEDFAVYYCQHRSNWPPTFGGGTKVEIK
Consider B1, for which the TGD in the assay with human HCT116 tumor cells was 9 days. In assay [1] (REGN421 0.5 mg/kg/dose sc), the TGI is −13.7%, the Euthanized stood at 32 days and the TGD stood at 0 days. Also, in assay [1] (REGN421 2 mg/kg/dose sc), the TGI is 83.1%, the Euthanized stood at 44 days and the TGD is listed as 12 days.

The values above are taken from patent US8840886B2, “Method of treating cancer with DLL4 antagonist and chemotherapeutic agent” (Regeneron Pharmaceuticals, Inc., priority 2009, dated 2014).
